# Laboratory results published in the RNAGym collection of RNA variant scans (doi:10.1101/gr.219683.116).
# B1: mRNA-splicing (parent)
# chain: AGUUGCUGCUGGGAGCUCCAGCACAGUGAAAUGGACAGAAGGGCAGAGCAA
# Variants of: B1
# Experiment: exon inclusion enrichment index; higher = more inclusion; WT1 exon 5 minigene, HEK293
row,Variant,exon inclusion enrichment index
1,G5C C6A U7C G8A U10A C18A,0.0467
2,G5C C6A U7C G8A U10A C18U,0.054
3,G5C C6A U7C G8A U10A C18G,0.097
4,G5C C6A U7C G8A U10A C44U A45C,0.252
5,G5C C6A U7C G8A U10A C44U A45G,0.0445
6,G5C C6A U7C G8A U10A C44U A45U,0.0623
7,G5C C6A U7C G8A U10A A31U,0.094
8,G5C C6A U7C G8A U10A A31G,0.141
9,G5C C6A U7C G8A U10A A31C,0.155
10,G5C C6A U7C G8A U10A G33A,0.00667
11,G5C C6A U7C G8A U10A G33U,0.0519
12,G5C C6A U7C G8A U10A G33C,0.162
13,G5C C6A U7C G8A U10A A37U G38A,0.0332
14,G5C C6A U7C G8A U10A A37U G38U,0.0186
15,G5C C6A U7C G8A U10A A37U G38C,0.0672
16,G5C C6A U7C G8A U10A A39G A40C,0.119
17,G5C C6A U7C G8A U10A A39G A40G,0.0106
18,G5C C6A U7C G8A U10A A39G A40U,0.0129
19,G5C C6A U7C G8A U10A C44G A45C,0.204
20,G5C C6A U7C G8A U10A C44G A45U,0.109
21,G5C C6A U7C G8A U10A C44G A45G,0.00762

row,Variant,exon inclusion enrichment index
1,G5C C6A U7C G8A U10A C18A C19A,0.0025
2,G5C C6A U7C G8A U10A C18A C19G,0.00323
3,G5C C6A U7C G8A U10A C18A C19U,0.00173
4,G5C C6A U7C G8A U10A G42U G43U,0.305
5,G5C C6A U7C G8A U10A G42U G43A,0.386
6,G5C C6A U7C G8A U10A G42U G43C,0.0644
7,G5C C6A U7C G8A U10A A40G G41C,0.666
8,G5C C6A U7C G8A U10A A40G G41U,0.0884
9,G5C C6A U7C G8A U10A A40G G41A,0.0264
10,G5C C6A U7C G8A U10A G41A,0.0572
11,G5C C6A U7C G8A U10A G41U,0.102
12,G5C C6A U7C G8A U10A G41C,0.467
13,G5C C6A U7C G8A U10A G38U A39G,0.0343
14,G5C C6A U7C G8A U10A G38U A39C,0.0552
15,G5C C6A U7C G8A U10A G38U A39U,0.00131
16,G5C C6A U7C G8A U10A C24G A25G,0.034
17,G5C C6A U7C G8A U10A C24G A25C,0.71
18,G5C C6A U7C G8A U10A C24G A25U,0.184
19,G5C C6A U7C G8A U10A G42C G43C,0.652
20,G5C C6A U7C G8A U10A G42C G43U,0.483
21,G5C C6A U7C G8A U10A G42C G43A,0.455

row,Variant,exon inclusion enrichment index
1,G5C C6A U7C G8A U10A G13C,0.0242
2,G5C C6A U7C G8A U10A G13U,0.00463
3,G5C C6A U7C G8A U10A G13A,0.277
4,G5C C6A U7C G8A U10A G11A G12U,0.0692
5,G5C C6A U7C G8A U10A G11A G12C,0.495
6,G5C C6A U7C G8A U10A G11A G12A,0.202
7,G5C C6A U7C G8A U10A G38C A39U,0.00505
8,G5C C6A U7C G8A U10A G38C A39G,0.111
9,G5C C6A U7C G8A U10A G38C A39C,0.136
10,G5C C6A U7C G8A U10A C16G,0.043
11,G5C C6A U7C G8A U10A C16U,0.0868
12,G5C C6A U7C G8A U10A C16A,0.0973
13,G5C C6A U7C G8A U10A A47G G48A,0.0475
14,G5C C6A U7C G8A U10A A47G G48U,0.00361
15,G5C C6A U7C G8A U10A A47G G48C,0.0266
16,G5C C6A U7C G8A U10A G15A C16A,0.00997
17,G5C C6A U7C G8A U10A G15A C16G,0.0227
18,G5C C6A U7C G8A U10A G15A C16U,0.0227
19,G5C C6A U7C G8A U10A A45C,0.18
20,G5C C6A U7C G8A U10A A45G,0.276
21,G5C C6A U7C G8A U10A A45U,0.211

row,Variant,exon inclusion enrichment index
1,G5C C6A U7C G8A U10A A31C U32C,0.385
2,G5C C6A U7C G8A U10A A31C U32G,0.221
3,G5C C6A U7C G8A U10A A31C U32A,0.0301
4,G5C C6A U7C G8A U10A C44G,0.198
5,G5C C6A U7C G8A U10A C44A,0.477
6,G5C C6A U7C G8A U10A C44U,0.0254
7,G5C C6A U7C G8A U10A G34C A35C,0.0037
8,G5C C6A U7C G8A U10A G34C A35G,0.0658
9,G5C C6A U7C G8A U10A G34C A35U,0.0152
10,G5C C6A U7C G8A U10A G26C U27C,0.54
11,G5C C6A U7C G8A U10A G26C U27G,0.537
12,G5C C6A U7C G8A U10A G26C U27A,0.076
13,G5C C6A U7C G8A U10A G34U A35U,0.00489
14,G5C C6A U7C G8A U10A G34U A35C,0.0109
15,G5C C6A U7C G8A U10A G34U A35G,0.0186
16,G5C C6A U7C G8A U10A C18U C19U,0.00236
17,G5C C6A U7C G8A U10A C18U C19A,0.00114
18,G5C C6A U7C G8A U10A C18U C19G,0.0165
19,G5C C6A U7C G8A U10A C18G C19A,0.143
20,G5C C6A U7C G8A U10A C18G C19G,0.186
21,G5C C6A U7C G8A U10A C18G C19U,0.00896
